# T1: human CD19, full length, on cells (human, UniProt P15391 20-556)
# T1 construct: the endogenous CD19 of Raji cells is put under the same molecule (the cell type stands under assay); The entry holds the signal peptide; also called CHO-K1-human CD19; CHO-K1-human CD19-2C8
# T1 sequence: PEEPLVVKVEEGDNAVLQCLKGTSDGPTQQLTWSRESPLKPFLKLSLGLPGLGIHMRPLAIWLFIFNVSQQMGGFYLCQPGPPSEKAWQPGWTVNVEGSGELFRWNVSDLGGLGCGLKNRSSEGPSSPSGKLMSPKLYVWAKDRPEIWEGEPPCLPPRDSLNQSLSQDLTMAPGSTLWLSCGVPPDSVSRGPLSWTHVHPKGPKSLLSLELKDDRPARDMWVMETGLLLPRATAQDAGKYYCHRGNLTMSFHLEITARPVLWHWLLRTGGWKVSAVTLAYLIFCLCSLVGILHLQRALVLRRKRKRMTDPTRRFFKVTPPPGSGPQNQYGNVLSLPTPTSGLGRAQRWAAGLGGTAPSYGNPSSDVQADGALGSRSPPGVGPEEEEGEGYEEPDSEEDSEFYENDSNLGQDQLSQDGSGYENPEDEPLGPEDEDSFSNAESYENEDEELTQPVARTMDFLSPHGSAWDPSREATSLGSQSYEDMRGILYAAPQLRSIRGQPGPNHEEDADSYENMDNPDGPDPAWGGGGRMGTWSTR
# T2: monkey CD19, full length, on HEK293T cells (monkey, UniProt P15391 20-556 (human entry))
# T2 construct: The entry holds the signal peptide; also called HEK293T-monkey CD19
# T2 chain: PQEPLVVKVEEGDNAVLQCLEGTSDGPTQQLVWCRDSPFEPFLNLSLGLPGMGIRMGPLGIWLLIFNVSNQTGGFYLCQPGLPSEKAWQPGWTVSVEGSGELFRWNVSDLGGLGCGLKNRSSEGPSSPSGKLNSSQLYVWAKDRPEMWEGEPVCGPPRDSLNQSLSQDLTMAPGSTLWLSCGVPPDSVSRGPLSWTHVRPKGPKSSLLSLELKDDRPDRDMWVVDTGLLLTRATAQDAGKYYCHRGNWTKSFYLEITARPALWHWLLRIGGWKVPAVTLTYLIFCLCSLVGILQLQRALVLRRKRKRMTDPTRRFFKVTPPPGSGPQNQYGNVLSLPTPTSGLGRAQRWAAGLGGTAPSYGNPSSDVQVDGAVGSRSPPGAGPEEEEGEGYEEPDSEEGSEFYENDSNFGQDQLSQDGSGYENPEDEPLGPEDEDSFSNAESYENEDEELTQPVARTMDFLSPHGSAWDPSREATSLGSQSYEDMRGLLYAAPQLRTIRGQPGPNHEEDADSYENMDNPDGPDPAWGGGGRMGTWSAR
# T3: human CD19 exon1-3-His protein (human, UniProt P15391 20-186)
# T3 construct: Made in HEK293E cells, purified on nickel column; not shown: His tag
# T3 sequence: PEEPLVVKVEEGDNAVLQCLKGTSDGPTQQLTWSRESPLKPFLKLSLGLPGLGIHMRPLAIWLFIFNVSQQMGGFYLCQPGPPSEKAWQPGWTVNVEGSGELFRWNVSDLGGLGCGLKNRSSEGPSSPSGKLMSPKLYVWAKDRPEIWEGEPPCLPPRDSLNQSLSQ
# Legend:
# [1] = target: T1, human CD19, full length, on cells; assay: FACS on CHO-K1-human CD19 cells
# Excerpt: (§1) The desired cells were expanded to a logarithmic growth phase in a T-75 cell culture flask. For adherent cells CHO-K1, the culture medium was removed by pipetting, and the cells were washed twice with a PBS buffer, digested with trypsin, and washed twice with a PBS buffer again after the digestion was stopped. For suspension cells Raji, the medium supernatant was discarded by direct centrifugation, and the cell pellet was washed twice with PBS. After cell counting of the cells obtained in the last step, the cell pellet was resuspended to 2×10⁶ cells/mL with a blocking solution [PBS+2% (w/w) BSA] and added into a 96-well FACS reaction plate at 50 μL/well. […] After the plate was centrifuged and washed 5 times with a PBS buffer, the results were assayed and analyzed by FACS (FACS Canto™, purchased from BD Biosciences). Data analysis was performed by software (CellQuest) to obtain the mean fluorescence intensity (MFI) of the cells. Then, analysis was performed by software (GraphPad Prism8), data were fitted, and EC₅₀ values were calculated.
# monkey CD19-his protein = monkey CD19-his protein (monkey); assay: ELISA, monkey CD19 coated
# Protocol: After incubation for 2 h at 37° C., the plate was washed 3 times with PBS. […] After incubation for 1 h at 37° C., the plate was washed 5 times with PBS. A TMB substrate was added at 50 μL/well. After incubation at room temperature for 10 min, a stop solution (1.0 N HCl) was added at 50 μL/well. The OD450 nm values were read on an ELISA microplate reader (Multimode Plate Reader, EnSight, purchased from Perkin Elmer). […] The negative control antibody mIgG1 was an antibody against hen egg lysozyme, anti-hel-mIgG1 (purchased from Biointron, Cat. No. B118301), and the data in the table were OD450 nm values.
# IgG control was mIgG1, S003-NB151-89 was a clone that is selected from a library constructed by peripheral blood collected from Alpaca immunized by human CD19-His and can bind to a monkey CD19-His protein, and was used as a positive control, and the data in the table were OD450 nm values.
# [2] = target: T1, human CD19, full length, on cells; assay: FACS on Raji cells
# Excerpt: as §1
# [3] = target: T2, monkey CD19, full length, on HEK293T …; assay: FACS on HEK293T-monkey CD19 cells
# Protocol: as §1, with “For” for “The desired cells were expanded to a logarithmic growth phase in a T-75 cell culture flask. For adherent cells CHO-K1, the culture medium was removed by pipetting, and the cells were washed twice with a PBS buffer, digested with trypsin, and washed twice with a PBS buffer again after the digestion was stopped. For”
# HEK293T-monkey CD19 cells were subjected to the FACS assay and data analysis according to the method described in Example 4.2.
# [4] = target: T3, human CD19 exon1-3-His protein; assay: ELISA on coated human CD19 exon1-3-His
EC50 [1] [nM],maximum mean fluorescence intensity [1] [MFI],OD450 at 0.0001 nM (monkey CD19-his protein) [OD450],OD450 at 0.001 nM (monkey CD19-his protein) [OD450],OD450 at 0.01 nM (monkey CD19-his protein) [OD450],OD450 at 0.10 nM (monkey CD19-his protein) [OD450],OD450 at 1.00 nM (monkey CD19-his protein) [OD450],OD450 at 10.00 nM (monkey CD19-his protein) [OD450],OD450 at 100.00 nM (monkey CD19-his protein) [OD450],EC50 [2] [nM],maximum mean fluorescence intensity [2] [MFI],EC50 [3] [nM],maximum mean fluorescence intensity [3] [MFI],binding result [4],Binder
1.12,31500,0.05,0.05,0.05,0.05,0.05,0.06,0.1,0.32,8500,20.3,38500,no binding (tested: 100 nM),"FMC63.26-mIgG1 (antibody, V domains shown, Humanized FMC63; also called FMC63-L2H6) VH: EVTLKESGPVLVKPTETLTLTCTVSGFSLPDYGVSWIRQPPGKALEWLAVIWGSETTYYNSALKSRLTISKDTSKSQVVLTMTNMDPVDTATYYCAKHYYYGGSYAMDYWGQGTTVTVSS VL: DIQMTQSPSSLSASVGDRVTITCRASQDISKYLNWYQQKPGGAVKLLIYHTSRLHSGVPSRFSGSGSGTDYTLTISSLQPEDFATYYCQQGNTLPYTFGGGTKVEIKR"
1.33,29400,0.05,0.05,0.05,0.05,0.05,0.05,0.1,0.3,7840,,,no binding (tested: 100 nM),"FMC63.27-mIgG1 (antibody, V domains shown, Humanized FMC63; also called FMC63-L2H7) VH: EVTLKESGPVLVKPTETLTLTCTVSGVSLPDYGVSWIRQPPGKALEWLAVIWGSETTYYNSALKSRLTISKDNSKSQVVLTMTNMDPVDTATYYCAKHYYYGGSYAMDYWGQGTTVTVSS VL: DIQMTQSPSSLSASVGDRVTITCRASQDISKYLNWYQQKPGGAVKLLIYHTSRLHSGVPSRFSGSGSGTDYTLTISSLQPEDFATYYCQQGNTLPYTFGGGTKVEIKR"
0.79,33100,0.1,0.1,0.09,0.08,0.08,0.1,0.12,0.33,9170,1.52,34700,no binding (tested: 100 nM),"FMC63.25-mIgG1 (antibody, V domains shown, Humanized FMC63; also called FMC63-L2H5) VH: EVTLKESGPVLVKPTETLTLTCTVSGFSLSDYGVSWIRQPPGKALEWLAVIWGSETTYYNSALKSRLTISKDTSKSQVVLTMTNMDPVDTATYYCAKHYYYGGSYAMDYWGQGTTVTVSS VL: DIQMTQSPSSLSASVGDRVTITCRASQDISKYLNWYQQKPGGAVKLLIYHTSRLHSGVPSRFSGSGSGTDYTLTISSLQPEDFATYYCQQGNTLPYTFGGGTKVEIKR"

# Reference: patent publication US20230406922A1 (SIMCERE ZAIMING PHARMACEUTICAL, published 2023)
